Laboratory results published in PMC4859490, “Why p-OMe- and p-Cl-β-Methylphenethylamines Display Distinct Activities upon MAO-B Binding” (PLoS ONE, 2016).

Substrate: COc1ccc(C(C)CN)cc1
Assay: purified protein
Assay type: biochemical, Homo sapiens
Conditions: FAD substrate binding site (modelled: aromatic cage facing FAD, Tyr398/Tyr435; methoxyl oxygen near Cys172)

B1: MAO-B (Homo sapiens) (protein)
chain: SNKCDVVVVGGGISGMAAAKLLHDSGLNVVVLEARDRVGGRTYTLRNQKVKYVDLGGSYVGPTQNRILRLAKELGLETYKVNEVERLIHHVKGKSYPFRGPFPPVWNPITYLDHNNFWRTMDDMGREIPSDAPWKAPLAEEWDNMTMKELLDKLCWTESAKQLATLFVNLCVTAETHEVSALWFLWYVKQCGGTTRIISTTNGGQERKFVGGSGQVSERIMDLLGDRVKLERPVIYIDQTRENVLVETLNHEMYEAKYVISAIPPTLGMKIHFNPPLPMMRNQMITRVPLGSVIKCIVYYKEPFWRKKDYCGTMIIDGEEAPVAYTLDDTKPEGNYAAIMGFILAHKARKLARLTKEERLKKLCELYAKVLGSLEALEPVHYEEKNWCEEQYSGGCYTTYFPPGILTQYGRVLRQPVDRIYFAGTETATHWSGYMEGAVEAGERAAREILHAMGKIPEDEIWQSEPESVDVPAQPITTTFLERHLPSVPGLLRLIGLTTIFSATALGFLAHKRGLLVRV
  Km: 87 ± 8 µM
  kcat: 0.233 ± 0.0167 s⁻¹
